Test results taken from patent publication EP1214598B1.
No end group written: not given here.

Target: PHF43 (tau fragment generated by GluC digestion of K19, 43 residues) (human)
Test: disulfide dimerization via Cys322, after reverse phase HPLC

dimer fraction: 100%
Binder: NLKHQPGGGKVQIVYKPVDLSKVTSKCGSLGNIHHKPGGGQVE (also: dimer via Cys322-Cys322 disulfide (without DTT)) [PHF43 (tau fragment generated by GluC digestion of K19, 43 residues)]
